Test results published in patent US20260193348A1 (ANTENGENE BIOLOGICS, published 2026).
Where two headings read alike, the source gives them in different places.

B1: ATG-Bis-40E9 (bispecific antibody)
heavy: EVQLQQSGPELVKPGASVKMSCKASGYTFTSYVIHWVKQKTGQGLEWIGYFNPYNDGTKYNEEFKGKATLTSDKSSNTAYMELNSLTSDDSAVYFCARGGVRRYFDVWGAGTTVTVSS
heavy (part 1 of 2): B1 heavy
heavy (part 2 of 2): GGGGSGGGGSEVQLQLSGPELVKPGASVKMSCKASGYTFSSYVIHWVKQKPGQGLEWIGYINPYNDVIKYNEKFKGKATLTSDKSSSTAYMELSSLTSEDSAVYYCARDSYYSYDGFAYWGQGTLVTVSAGGGGSGGGGSGGGGSGGGGSQIVLTQSPAIMSASPGEKVTMTCSASSSVSYMHWYQQKSGTSPKRWIYDTSKLASGVPARFSGSGSGTSYSLTISSMEAEDAATYYCQQWSSNPPTFGGGTKVEIKGGGGSGGGGS
light: DIQMTQSPSSLSASLGERVSLTCRASQDIGSNLNWLQQEPDGTIKRLIYATFGLDSGVPKRFSGSRSGSDYSLTISSLESEDFVDYYCQQYASFPYTFGGGTKLEIK
notes: Fab-scFv-Fab (2+1) format: two anti-GPRC5D Fabs, one anti-CD3 scFv; LALA (L234A, L235A, EU); also called chimeric 2+1 bispecific antibody; 108C4C12 Fab x 40-C12-C10-E9 scFv; not shown: CH1; CL; CH2-CH3 with L234A, L235A; heavy chain constant region with L234A, L235A
B2: Bis-108+147-S54R.H (bispecific antibody)
chain 1: EVQLVQSGAEVKKPGASVKVSCKASGYTFTSYVIHWVRQAPGQGLEWMGYFNPYNDGTKYNEEFKGRVTLTSDKSTSTAYMELRSLRSDDTAVYYCARGGVRRYFDVWGQGTTVTVSS
chain 2: EVQLVQSGAEVKKPGSSVKVSCKASGYTFTSYWMHWVRQAPGQCLEWMGNINPRSGATNYNEKFKSRVTLTVDKSTSTAYMELSSLRSEDTAVYYCARDRSSQYYFDYWGQGTTVTVSSGGGGSGGGGSGGGGSGGGGSDIVMTQSPDSLAVSLGERATINCKSSQSLLNSRSRKNYLAWYQQKPGQPPKLLIYWASTRESGVPDRFSGSGSGTDFTLTISSLQAEDVAVYYCTQSYTLRTFGCGTKVEIK
chain 3: DIQMTQSPSSLSASVGDRVTITCRASQDIGSNLNWLQQKPGKAIKRLIYATFGLDSGVPSRFSGSRSGTDFTLTISSLQPEDFATYYCQQYASFPYTFGGGTKVEIK
B3: RG6234 (bispecific antibody, human IgG1, kappa, L234A L235A)
heavy 1: EVQLVESGGGLVQPGRSLKLSCAASGFSFSNYGMAWVRQAATKGLEWVASISTGGGNTYYRDSVKGRFIVSRDNAKNTQYLQMDSLRSEDTATYYCTRHDRGGLYWGQGVMVTVSSASTKGPSVFPLAPSSKSTSGGTAALGCLVEDYFPEPVTVSWNSGALTSGVHTFPAVLQSSGLYSLSSVVTVPSSSLGTQTYICNVNHKPSNTKVDEKVEPKSCDKTHTCPPCPAPEAAGGPSVFLFPPKPKDTLMISRTPEVTCVVVDVSHEDPEVKFNWYVDGVEVHNAKTKPREEQYNSTYRVVSVLTVLHQDWLNGKEYKCKVSNKALGAPIEKTISKAKGQPREPQVCTLPPSRDELTKNQVSLSCAVKGFYPSDIAVEWESNGQPENNYKTTPPVLDSDGSFFLVSKLTVDKSRWQQGNVFSCSVMHEALHNHYTQKSLSLSPGK
heavy 2: not shown
light 1: DIVMTQAPLSVSVTPGESASISCRSSKSLLHSNGITYVYWYFQKPGKSPQVLIYRMSNLASGVPDRFSGSGSETDFTLKISRVEAEDVGIYHCGQLLENPYTFGAGTELELKRTVAAPSVFIFPPSDRKLKSGTASVVCLLNNFYPREAKVQWKVDNALQSGNSQESVTEQDSKDSTYSLSSTLTLSKADYEKHKVYACEVTHQGLSSPVTKSFNRGEC
light 2: EVQLLESGGGLVQPGGSLRLSCAASGFTFSTYAMNWVRQAPGKGLEWVSRIRSKYNNYATYYADSVKGRFTISRDDSKNTLYLQMNSLRAEDTAVYYCVRHGNFGNSYVSWFAYWGQGTLVTVSSRTVAAPSVFIFPPSDEQLKSGTASVVCLLNNFYPREAKVQWKVDNALQSGNSQESVTEQDSKDSTYSLSSTLTLSKADYEKHKVYACEVTHQGLSSPVTKSFNRGEC
notes: construct per WO2019154890A1; also called benchmark antibody RG6234 (Roche)

How the values were obtained:
[1] = biological target: T1, GPRC5D (G-protein coupled receptor family C group 5 member D), human, on multiple myeloma cell lines (human, UniProt Q9NZD1 1-345); experiment: cell-based or functional assay
[2] = biological target: T1, GPRC5D (G-protein coupled receptor …); experiment: cell-based or functional assay; remark: listed apart in the source
[3] = biological target: T1, GPRC5D (G-protein coupled receptor …); experiment: cell-based or functional assay; remark: listed apart in the source
[4] = biological target: T2, CD3 (Cluster of Differentiation 3 protein), human, on T cells / Jurkat cells (human, UniProt P07766 23-207; P04234 22-171; P09693 23-182); experiment: FACS, Jurkat cells, antibody at 50 µg/ml
T2 construct: whole, on cells; part of the TCR-CD3 complex; also called human CD3
How it was run: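 Jurkat cells in PBS + 1% BSA were incubated with humanized Fab-scFv-Fab bispecific antibody dilutions for 1 hour at 4 degrees, then washed. A secondary antibody was applied for 0.5 hours at 4 degrees. Binding was read as fluorescence by flow cytometry.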

[5] = biological target: T1, GPRC5D (G-protein coupled receptor …); experiment: FACS, MOLP-8 cells
Protocol: (§1) The binding affinities of the generated humanized Fab-scFv-Fab bispecific antibodies were determined by FACS analysis. […] (a) Jurkat cells were washed by Staining Buffer (PBS+1% BSA) in round bottom 96-well plate. [0833] (b) Antibody dilutions and cells were added to each well, incubated at 4 degrees for 1 hour. [0834] (c) Cells were spined down at 300 g for 3 minutes, and the supernatants were discarded. [0835] (d) Cells were washed with Staining Buffer. […] (e) Step (d) was repeated and the cells were incubated for 0.5 hours at 4 degrees with secondary antibody in Staining Buffer. [0837] (f) After incubation, step (d)-(e) were repeated. […] (g) Staining Buffer was added and fluorescence signals were recorded by flow cytometry.
(§2) The binding affinities of the generated humanized Fab-scFv-Fab bispecific antibodies to different multiple myeloma cell lines were evaluated by FACS analysis. The protocol for FACS analysis is identical to that described in Example 3.2, except that different cells were used in this example, i.e., multiple myeloma cell lines (MM.1S, […], L363 and RPMI 8226) were used in this example.

[6] = biological target: T1, GPRC5D (G-protein coupled receptor …); experiment: FACS, MM.1S cells
Protocol: as §1, §2

[7] = biological target: T1, GPRC5D (G-protein coupled receptor …); experiment: cell-based or functional assay; remark: listed apart in the source
[8] = biological target: T2, CD3 (Cluster of Differentiation 3 …); experiment: FACS, CD3+ T cells isolated from normal donors
Protocol: To evaluate the binding affinity of the generated chimeric bispecific antibody to T cells, the isolated CD3⁺ T cells were stained by antibodies and the binding affinity was determined by FACS analysis. The protocol of FACS analysis is described as follows: [0785] (a) CD3⁺ T cells were isolated from normal donors. [0786] (b) The isolated CD3⁺ T cells were washed by Staining Buffer (PBS+1% BSA) in round bottom 96-well plate. […] (c) Antibody dilutions were added to each well and mixed with the CD3+ T cells, incubated at 4 degrees for 1 hour. […] (d) Cells were spined at 300 g for 3 minutes, then the supernatants were discarded. [0789] (e) Cells were washed with Staining Buffer. [0790] (f) Step (d) was repeated, and the cells were incubated with secondary antibody in Staining Buffer for 0.5 hours at 4 degrees. [0791] (g) After incubation, step (d)-(e) were repeated. [0792] (h) Cells were resuspended in Staining Buffer and fluorescence signals were recorded by flow cytometry.

GPRC5D on MM.1S cells [9] = biological target: T3, GPRC5D on MM.1S cells (human, UniProt Q9NZD1 1-345); experiment: cell-based or functional assay
CD3 on Jurkat cells = biological target: T4, CD3 on Jurkat cells (UniProt P07766 23-207; P04234 22-171; P09693 23-182); experiment: FACS on Jurkat cells
T4 construct: whole, on cells; On the cell, CD3 stands in the TCR-CD3 complex; also called cluster of differentiation 3
Protocol: as §1
The binding affinities of the generated humanized Fab-scFv-Fab bispecific antibodies were determined by FACS analysis. The ATG-Bis-40E9 described in Example 1 was used as positive control and hIgG1 isotype was used as negative control. The protocol for FACS analysis is described in Example 3.2 above.

GPRC5D on MM.1S cells [10] = biological target: T3, GPRC5D on MM.1S cells; experiment: FACS on MM.1S cells
GPRC5D on MM.1S cells [11] = biological target: T3, GPRC5D on MM.1S cells; experiment: cell-based or functional assay; remark: listed apart in the source

T2 sequence (P07766 23-207, chain 1 of 3): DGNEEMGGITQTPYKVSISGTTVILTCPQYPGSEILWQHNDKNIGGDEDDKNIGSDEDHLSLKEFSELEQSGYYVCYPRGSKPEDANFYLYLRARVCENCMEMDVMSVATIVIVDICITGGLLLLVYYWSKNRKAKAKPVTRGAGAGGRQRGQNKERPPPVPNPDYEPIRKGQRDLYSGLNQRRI
T2 sequence (P04234 22-171, chain 2 of 3): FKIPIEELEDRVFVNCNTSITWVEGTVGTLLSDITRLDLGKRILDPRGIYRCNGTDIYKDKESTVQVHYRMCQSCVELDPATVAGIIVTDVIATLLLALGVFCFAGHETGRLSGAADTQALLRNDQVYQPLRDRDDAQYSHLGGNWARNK
T2 sequence (P09693 23-182, chain 3 of 3): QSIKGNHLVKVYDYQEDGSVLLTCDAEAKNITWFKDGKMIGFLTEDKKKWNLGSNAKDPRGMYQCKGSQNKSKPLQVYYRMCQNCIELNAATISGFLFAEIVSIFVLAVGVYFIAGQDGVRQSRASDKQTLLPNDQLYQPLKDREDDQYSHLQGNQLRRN
T1 sequence (Q9NZD1 whole entry): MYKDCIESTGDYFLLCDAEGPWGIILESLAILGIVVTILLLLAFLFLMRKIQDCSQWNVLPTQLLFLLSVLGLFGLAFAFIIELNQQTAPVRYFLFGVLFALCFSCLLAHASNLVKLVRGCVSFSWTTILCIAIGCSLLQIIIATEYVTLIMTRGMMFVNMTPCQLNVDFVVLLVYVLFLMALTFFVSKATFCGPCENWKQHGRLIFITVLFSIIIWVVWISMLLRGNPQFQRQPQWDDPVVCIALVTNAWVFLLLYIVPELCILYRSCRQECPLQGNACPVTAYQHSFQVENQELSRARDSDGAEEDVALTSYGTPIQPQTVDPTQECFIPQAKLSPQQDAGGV
T3 sequence (Q9NZD1 whole entry): as above
T4 sequence (P07766 23-207, chain 1 of 3): as the sequence (P07766 23-207, chain 1 of 3) above
T4 sequence (P04234 22-171, chain 2 of 3): as the sequence (P04234 22-171, chain 2 of 3) above
T4 sequence (P09693 23-182, chain 3 of 3): as the sequence (P09693 23-182, chain 3 of 3) above

Binder | IC50 (nM), T-Cell Dependent Cytotoxicity, L363 [1] [nM] | IC50 (nM), T-Cell Dependent Cytotoxicity, MM.1S [1] [nM] | IC50 (nM), T-Cell Dependent Cytotoxicity, MOLP-8 [1] [nM] | IC50 (nM), T-Cell Dependent Cytotoxicity, RPMI8226 [1] [nM] | IC50 (nM), T-Cell Dependent Cytotoxicity, MM.1S [2] [nM] | IC50 (nM), T-Cell Dependent Cytotoxicity, MOLP-8 [2] [nM] | IC50 (nM), T-Cell Dependent Cytotoxicity, RPMI8226 [2] [nM] | Top (%), T-Cell Dependent Cytotoxicity, MM.1S [2] [%] | Top (%), T-Cell Dependent Cytotoxicity, MOLP-8 [2] [%] | Top (%), T-Cell Dependent Cytotoxicity, RPMI8226 [2] [%] | EC50 (nM), luciferase assay, L363 [3] [nM] | EC50 (nM), luciferase assay, MM.1S [3] [nM] | EC50 (nM), luciferase assay, MOLP-8 [3] [nM] | EC50 (nM), luciferase assay, RPMI8226 [3] [nM] | MFI (50 µg/ml) [4] [MFI] | EC50 (nM), luciferase assay, L363 [7] [nM] | EC50 (nM), luciferase assay, MM.1S [7] [nM] | EC50 (nM), luciferase assay, MOLP-8 [7] [nM] | EC50 (nM), luciferase assay, RPMI8226 [7] [nM] | Top (RLU), luciferase assay, L363 [7] [RLU] | other results
B1 | 0.001 | 0.002 | 0.001 | 0.009 | 0.00641 | 0.00607 | 0.0351 | 81.5 | 59 | 9 | 69.4 | 0.739 | 0.374 | 0.071 | 490 | 0.028 | 0.787 | 0.0186 | 0.117 | 1050 | EC50 [5]: 0.817 nM; Top (MFI) [5]: 958 MFI; EC50 [6]: 11.3 nM; Top (MFI) [6]: 1200 MFI; Top (RLU), luciferase assay, MM.1S [7]: 3550 RLU; Top (RLU), luciferase assay, MOLP-8 [7]: 826 RLU; Top (RLU), luciferase assay, RPMI8226 [7]: 776 RLU; EC50 [8]: 287 nM; Top (MFI) [8]: 1990 MFI
B2 | – | – | – | – | – | – | – | – | – | – | – | – | – | – | – | – | – | – | – | – | IC50 of T-cell dependent cytotoxicity on MM.1S cells (GPRC5D on MM.1S cells [9]): 1.25 nM; Top (%) target cell killing, MM.1S cells (GPRC5D on MM.1S cells [9]): 110%; Top signal (CD3 on Jurkat cells): 293 MFI; EC50 (GPRC5D on MM.1S cells [10]): 3.7 nM; Top signal (GPRC5D on MM.1S cells [10]): 2620 MFI; EC50, Jurkat-NFAT-Luciferase assay in the presence of MM.1S cells (GPRC5D on MM.1S cells [11]): 0.24 nM; Top RLU, Jurkat-NFAT-Luciferase assay in the presence of MM.1S cells (GPRC5D on MM.1S cells [11]): 362 RLU
B3 | 0.007 | 0.006 | 0.002 | 0.031 | 0.019 | 0.00599 | 0.0899 | 77.2 | 53.4 | 8.1 | 44 | 0.334 | 0.756 | 0.047 | 836 | 0.0532 | 0.0397 | 0.021 | 0.0929 | 1260 | Top (RLU), luciferase assay, MM.1S [7]: 3910 RLU; Top (RLU), luciferase assay, MOLP-8 [7]: 1060 RLU; Top (RLU), luciferase assay, RPMI8226 [7]: 616 RLU; EC50 [8]: 274 nM; Top (MFI) [8]: 2550 MFI
